Tests used:
HLA-B*15:01 [1] = experiment: IEDB peptide-MHC binding, purified MHC/direct/fluorescence; filed as Kd, often an IC50 or EC50 that approximates it; ≥ and ≤ were set here for values at or beyond the usual limits of such assays
HLA-A*69:01 = experiment: as above
HLA-B*40:01 = experiment: as above
HLA-B*46:01 = experiment: IEDB peptide-MHC binding, purified MHC/competitive/fluorescence; filed as Kd, often an IC50 or EC50 that approximates it; ≥ and ≤ were set here for values at or beyond the usual limits of such assays; conditions: source organism: Haemophilus influenzae R3021
HLA-B*07:02 = experiment: IEDB peptide-MHC binding, purified MHC/competitive/radioactivity; filed as Kd, often an IC50 or EC50 that approximates it; ≥ and ≤ were set here for values at or beyond the usual limits of such assays
HLA-B*35:01 = experiment: as above
HLA-B*53:01 = experiment: as above
HLA-A*30:02 = experiment: as above
HLA-A*26:01 [2] = experiment: as above
HLA-A*01:01 [3] = experiment: as above
HLA-B*15:01 [4] = experiment: as above
HLA-B*51:01 [5] = experiment: as above
HLA-A*24:03 = experiment: IEDB peptide-MHC binding, purified MHC/direct/fluorescence; filed as Kd, often an IC50 or EC50 that approximates it; ≥ and ≤ were set here for values at or beyond the usual limits of such assays
HLA-B*51:01 [6] = experiment: IEDB peptide-MHC binding, purified MHC/competitive/fluorescence; filed as Kd, often an IC50 or EC50 that approximates it; ≥ and ≤ were set here for values at or beyond the usual limits of such assays; conditions: source organism: Listeria monocytogenes FSL J1-194
HLA-B*08:01 [7] = experiment: IEDB peptide-MHC binding, purified MHC/direct/fluorescence; filed as Kd, often an IC50 or EC50 that approximates it; ≥ and ≤ were set here for values at or beyond the usual limits of such assays
HLA-A*02:01 [8] = experiment: IEDB peptide-MHC binding, purified MHC/competitive/fluorescence; filed as Kd, often an IC50 or EC50 that approximates it; ≥ and ≤ were set here for values at or beyond the usual limits of such assays
HLA-A*26:01 [9] = experiment: IEDB peptide-MHC binding, purified MHC/direct/fluorescence; filed as Kd, often an IC50 or EC50 that approximates it; ≥ and ≤ were set here for values at or beyond the usual limits of such assays
HLA-B*15:01 [10] = experiment: IEDB peptide-MHC binding, purified MHC/competitive/fluorescence; filed as Kd, often an IC50 or EC50 that approximates it; ≥ and ≤ were set here for values at or beyond the usual limits of such assays
HLA-A*32:01 = experiment: IEDB peptide-MHC binding, purified MHC/competitive/radioactivity; filed as Kd, often an IC50 or EC50 that approximates it; ≥ and ≤ were set here for values at or beyond the usual limits of such assays
HLA-B*08:01 [11] = experiment: as above; conditions: source organism: Vaccinia virus WR
HLA-A*30:01 = experiment: as above
HLA-A*31:01 = experiment: IEDB peptide-MHC binding, purified MHC/direct/fluorescence; filed as Kd, often an IC50 or EC50 that approximates it; ≥ and ≤ were set here for values at or beyond the usual limits of such assays; conditions: source organism: Cryptosporidium parvum
HLA-A*02:01 [12] = experiment: as above; conditions: source organism: Cryptosporidium parvum
HLA-B*44:02 = experiment: as above; conditions: source organism: Cryptosporidium parvum
HLA-B*27:05 = experiment: as above; conditions: source organism: Cryptosporidium parvum
HLA-B*58:01 = experiment: as above
HLA-A*01:01 [13] = experiment: as above; conditions: source organism: Cryptosporidium parvum
HLA-A*03:01 = experiment: as above; conditions: source organism: Cryptosporidium parvum
HLA-A*11:01 = experiment: as above; conditions: source organism: Cryptosporidium parvum
HLA-A*24:02 = experiment: IEDB peptide-MHC binding, purified MHC/competitive/radioactivity; filed as Kd, often an IC50 or EC50 that approximates it; ≥ and ≤ were set here for values at or beyond the usual limits of such assays
HLA-A*29:02 = experiment: as above
HLA-A*23:01 = experiment: as above
HLA-B*57:01 = experiment: IEDB peptide-MHC binding, purified MHC/direct/fluorescence; filed as Kd, often an IC50 or EC50 that approximates it; ≥ and ≤ were set here for values at or beyond the usual limits of such assays; conditions: source organism: Campylobacter jejuni
HLA-B*39:01 = experiment: IEDB peptide-MHC binding, purified MHC/competitive/fluorescence; filed as Kd, often an IC50 or EC50 that approximates it; ≥ and ≤ were set here for values at or beyond the usual limits of such assays; conditions: source organism: Vibrio parahaemolyticus AQ3810
HLA-A*02:03 = experiment: IEDB peptide-MHC binding, purified MHC/competitive/radioactivity; filed as Kd, often an IC50 or EC50 that approximates it; ≥ and ≤ were set here for values at or beyond the usual limits of such assays; conditions: source organism: Vaccinia virus WR
HLA-A*02:06 = experiment: as above; conditions: source organism: Vaccinia virus WR
HLA-A*02:02 = experiment: as above; conditions: source organism: Vaccinia virus WR
[14] = source organism: Haemophilus influenzae
[15] = source organism: Dengue virus 4 Philippines/H241/1956
[16] = source organism: Dengue virus 2 Jamaica/1409/1983
[17] = source organism: Dengue virus 1 Brazil/97-11/1997
[18] = source organism: Giardia lamblia ATCC 50803
[19] = source organism: Escherichia coli O139:H28 str. E24377A
[20] = source organism: Vaccinia virus WR
[21] = source organism: Cryptosporidium parvum
[22] = source organism: Mammarenavirus machupoense
[23] = source organism: Mammarenavirus guanaritoense

Sequence: EQFPNATAF
- Kd (HLA-B*15:01 [1]; [14]): 42.3 nM
- Kd (HLA-A*69:01; [14]): 9840 nM
- Kd (HLA-B*40:01; [14]): 2970 nM
- Kd (HLA-B*46:01): 2370 nM

Sequence: SPAAAQKAT
- Kd (HLA-B*07:02; [15]): 14.3 nM

Sequence: LPGADTQGSN
- Kd (HLA-B*35:01; [16]): 2840 nM

Sequence: FTIMAAILAY
- Kd (HLA-B*53:01; [16]): 3450 nM
- Kd (HLA-A*30:02; [16]): 2170 nM
- Kd (HLA-A*26:01 [2]; [16]): 55 nM
- Kd (HLA-A*01:01 [3]; [16]): 973 nM
- Kd (HLA-B*15:01 [4]; [16]): 2.18 nM

Sequence: SPIINRKGKV
- Kd (HLA-B*07:02; [15]): 248 nM
- Kd (HLA-B*51:01 [5]; [15]): ≥ 69600 nM

Sequence: GYCLTRWML
- Kd (HLA-A*24:03; source organism: Mammarenavirus lassaense): 39.5 nM

Sequence: IAMTDTTPF
- Kd (HLA-B*35:01; [17]): 1.18 nM
- Kd (HLA-B*53:01; [17]): 172 nM
- Kd (HLA-B*15:01 [4]; [17]): 4.25 nM

Sequence: GINKRSTPF
- Kd (HLA-B*15:01 [4]; source organism: Vaccinia virus Copenhagen): 0.723 nM

Sequence: LMRRGDLPVW
- Kd (HLA-B*15:01 [4]; [16]): 159 nM

Sequence: LKYAPFFQV
- Kd (HLA-B*51:01 [6]): ≥ 20000 nM

Sequence: EMKLRQKQL
- Kd (HLA-B*08:01 [7]; [18]): 38 nM
- Kd (HLA-A*02:01 [8]; [18]): ≥ 20000 nM

Sequence: LVSLLGSAL
- Kd (HLA-B*07:02; [15]): 44.3 nM

Sequence: ELVDTTEMY
- Kd (HLA-A*26:01 [9]; source organism: Mycobacterium tuberculosis variant bovis): 207 nM
- Kd (HLA-B*15:01 [10]; source organism: Mycobacterium tuberculosis H37Rv): 324 nM

Sequence: KMSGKTPAV
- Kd (HLA-A*02:01 [8]; [19]): 1.7 nM
- Kd (HLA-B*15:01 [10]; [19]): 1160 nM

Sequence: MATFKMRPM
- Kd (HLA-B*07:02; [17]): 158 nM

Sequence: SLCKLNNVF
- Kd (HLA-A*32:01; [20]): 927 nM
- Kd (HLA-B*15:01 [4]; [20]): 16 nM

Sequence: YPKTKLTDWD
- Kd (HLA-B*35:01; [15]): 1310 nM

Sequence: RIRNKFMFI
- Kd (HLA-B*08:01 [11]): 1.58 nM
- Kd (HLA-A*30:01; [20]): 0.0693 nM
- Kd (HLA-B*15:01 [4]; [20]): 766 nM

Sequence: GYQHKTLAI
- Kd (HLA-A*24:03; source organism: Vibrio vulnificus): 6.5 nM

Sequence: QPHWIAASII
- Kd (HLA-B*07:02; [16]): 47.5 nM
- Kd (HLA-B*51:01 [5]; [16]): 468 nM

Sequence: KNNNEFAFF
- Kd (HLA-B*15:01 [4]; [20]): 1330 nM

Sequence: RLLRMNNEN
- Kd (HLA-A*31:01): ≥ 20000 nM
- Kd (HLA-B*08:01 [7]; [21]): ≥ 20000 nM
- Kd (HLA-A*02:01 [12]): ≥ 20000 nM
- Kd (HLA-A*26:01 [9]; [21]): ≥ 20000 nM
- Kd (HLA-B*44:02): ≥ 20000 nM
- Kd (HLA-B*27:05): ≥ 20000 nM
- Kd (HLA-B*58:01; [21]): ≥ 20000 nM
- Kd (HLA-A*01:01 [13]): ≥ 20000 nM
- Kd (HLA-B*15:01 [1]; [21]): ≥ 20000 nM
- Kd (HLA-A*03:01): ≥ 20000 nM
- Kd (HLA-A*69:01; [21]): ≥ 20000 nM
- Kd (HLA-A*11:01): ≥ 20000 nM
- Kd (HLA-B*40:01; [21]): ≥ 20000 nM

Sequence: QLNQLSKSEF
- Kd (HLA-B*15:01 [4]; [17]): 73.1 nM

Sequence: LLSPVRVPNY
- Kd (HLA-A*30:02; [16]): 306 nM
- Kd (HLA-A*01:01 [3]; [16]): 15100 nM
- Kd (HLA-B*15:01 [4]; [16]): 2.99 nM

Sequence: FLYSFFLCI
- Kd (HLA-B*08:01 [11]): 5810 nM
- Kd (HLA-B*15:01 [4]; [20]): 1170 nM

Sequence: SPAAAQKATL
- Kd (HLA-B*07:02; [15]): 3.95 nM

Sequence: KLNQLSRKEF
- Kd (HLA-B*15:01 [4]; source organism: Dengue virus 3 Martinique/1243/1999): 70.6 nM

Sequence: NPNMTDKTPV
- Kd (HLA-B*07:02; [15]): 118 nM

Sequence: PYENLLYKL
- Kd (HLA-A*24:03; source organism: Mammarenavirus paranaense): 785 nM
- Kd (HLA-A*24:02; [22]): 521 nM
- Kd (HLA-A*29:02; [22]): 2340 nM
- Kd (HLA-A*23:01; [22]): 81.5 nM

Sequence: ILWILDRLF
- Kd (HLA-B*15:01 [10]; source organism: Influenza A virus (A/Memphis/1/1978(H1N1))): ≥ 20000 nM

Sequence: KSNKIRGRM
- Kd (HLA-B*57:01): 988 nM
- Kd (HLA-B*58:01; source organism: Campylobacter jejuni): 192 nM

Sequence: THPERTLRL
- Kd (HLA-B*39:01): 2500 nM

Sequence: SPNPTIEAGR
- Kd (HLA-B*07:02; [16]): 1400 nM

Sequence: LAYTIGTTHF
- Kd (HLA-B*35:01; [16]): 1410 nM
- Kd (HLA-A*24:02; [16]): 230 nM

Sequence: RPVKEKEENL
- Kd (HLA-B*07:02; [17]): 761 nM

Sequence: YICILINHG
- Kd (HLA-B*15:01 [4]; [20]): 813 nM

Sequence: ASITAFKSM
- Kd (HLA-B*15:01 [4]; [20]): 25 nM

Sequence: LLFVCISYY
- Kd (HLA-B*15:01 [4]; [20]): ≥ 78100 nM

Sequence: AMVLSIVSLF
- Kd (HLA-A*24:02; [17]): 580 nM
- Kd (HLA-B*15:01 [4]; [17]): 4.66 nM
- Kd (HLA-A*23:01; [17]): 15.1 nM

Sequence: PTMEIEDQEY
- Kd (HLA-A*30:01; [23]): ≥ 70400 nM
- Kd (HLA-A*30:02; [23]): 8840 nM
- Kd (HLA-A*32:01; [23]): ≥ 49800 nM
- Kd (HLA-A*26:01 [2]; [23]): 1140 nM
- Kd (HLA-A*01:01 [3]; [23]): 17.2 nM
- Kd (HLA-A*29:02; [23]): 11300 nM

Sequence: KAFKKFPSG
- Kd (HLA-A*30:01; [20]): 247 nM
- Kd (HLA-B*15:01 [4]; [20]): 2990 nM

Sequence: FIAKHFLEL
- Kd (HLA-B*08:01 [11]): 1.3 nM
- Kd (HLA-B*15:01 [4]; [20]): 6500 nM

Sequence: SVIFYFISI
- Kd (HLA-A*02:03): 75 nM
- Kd (HLA-B*15:01 [4]; [20]): 335 nM
- Kd (HLA-A*02:06): 0.169 nM
- Kd (HLA-A*02:02): 155 nM

Sequence: KAAKRISHG
- Kd (HLA-B*15:01 [4]; [20]): 7690 nM

Sequence: LIKVLVEHG
- Kd (HLA-B*15:01 [4]; [20]): 621 nM

Sequence: MKLVMAFIAF
- Kd (HLA-B*35:01; [17]): 1830 nM

Sequence: KQEHETSWHY
- Kd (HLA-A*30:02; [16]): ≥ 69700 nM
- Kd (HLA-B*15:01 [4]; [16]): 125 nM

Sequence: GPMVAGGLLL
- Kd (HLA-B*07:02; [15]): 36.3 nM
- Kd (HLA-B*51:01 [5]; [15]): ≥ 69600 nM

Sequence: IANQAAVLM
- Kd (HLA-B*35:01; [15]): 75.1 nM

— the Immune Epitope Database (IEDB)
